Measurements published in patent US20240025971A1 (ATRECA, published 2024).
Positions count from the first letter of the chain named.

B1: AB-010020 (antibody, V domains shown)
VH: QMQLVQSGPEVKKPGTSVKVSCKASGFTFTSSAVQWVRQARGQRLEWIGWIVVGSGNTNYAQKFQERVTITRDMSTSTAYMELSSLRSEDTAVYYCAAPACSSTSCYDGFDIWGQGTMVTVSS
VL: not shown
notes: human IgG1
B2: AB-010021 (antibody, V domains shown)
VH: B1 VH with P99V, A100Y, S103G, T104G, Y107L, G109A
VL: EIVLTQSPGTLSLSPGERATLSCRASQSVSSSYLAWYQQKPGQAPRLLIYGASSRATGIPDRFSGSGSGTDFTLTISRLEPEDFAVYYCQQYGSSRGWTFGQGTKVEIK
notes: human IgG1; also called AB-0010021
B3: AB-009271 (antibody, V domains shown)
VH: EVQLVESGGGLIQPGGSLRLSCAASGFIVSSNYMSWVRQAPGKGLEWVSVIYSGGSTYYADSVKGRFTISRDNSKNTLYLQMNSLRAEDTAVYYCARDYGDFYFDYWGQGTLVTVSS
VL: EIVMTQSPATLSVSPGERATLSCRASQSVSSNLAWYQQKPGQAPRLLIYGASTRATGIPARFSGSGSGTEFTLTISSLQSEDFAVYYCQQYYNWPRTFGQGTKVEIK
notes: human IgG1
B4: AB-009613 (antibody, V domains shown)
VH: B3 VH with I28T
VL: not shown
notes: human IgG1
B5: AB-009610 (antibody, V domains shown)
VH: QVQLVQSGAEVKKPGSSVKVSCKASGGTFSNYAISWVRQAPGQGLEWMGRIIPILGIANYAQKFQGRVTITADKSTSTAYMELSSLRSEDTAVYYCATTPYYYDSSGYYLDYWGQGTLVTVSS
VL: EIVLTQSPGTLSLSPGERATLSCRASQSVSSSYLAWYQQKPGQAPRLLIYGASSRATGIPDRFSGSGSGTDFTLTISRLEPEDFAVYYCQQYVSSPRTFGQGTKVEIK
notes: human IgG1

target: SARS-CoV-2 Delta-plus (B.1.617.2.1) full-length Spike protein (SARS-CoV-2, UniProt P0DTC2 14-1273); experiment: cell-based or functional assay

Going from B1 to B2, the “Pseudovirus Neutralization” value rises from 0.001 µg/mL to 0.078 µg/mL (78-fold).

B3 and B4 cannot be ordered by “Pseudovirus Neutralization” value: > 50 µg/mL for the first, > 50 µg/mL for the second.

In the case of B5, the “Pseudovirus Neutralization” value is reported as > 50 µg/mL.

target: SARS-CoV-2 Beta (B.1.351) full-length Spike protein (SARS-CoV-2, UniProt P0DTC2 14-1273); experiment: cell-based or functional assay

Going from B1 to B2, the “Pseudovirus Neutralization” value rises from 0.018 µg/mL to 8.27 µg/mL (460-fold).

B3 and B4 cannot be ordered by “Pseudovirus Neutralization” value: > 50 µg/mL for the first, > 50 µg/mL for the second.

For B5, the “Pseudovirus Neutralization” value was > 50 µg/mL.

target: SARS-CoV-2 Delta (B.1.617.2) full-length Spike protein (SARS-CoV-2, UniProt P0DTC2 14-1273); experiment: cell-based or functional assay

First: B1
Second: B2
The “Pseudovirus Neutralization” value of the first is 190-fold lower: 0.003 µg/mL for the first, 0.574 µg/mL for the second.

Going from B3 to B4, the “Pseudovirus Neutralization” value rises from 0.012 µg/mL to 0.101 µg/mL (8.4-fold).

In the case of B5, the “Pseudovirus Neutralization” value is reported as > 50 µg/mL.

target: SARS-CoV-2 Epsilon (B.1.427/9) full-length Spike protein (SARS-CoV-2, UniProt P0DTC2 14-1273); experiment: cell-based or functional assay

Going from B1 to B2, the “Pseudovirus Neutralization” value rises from 0.003 µg/mL to 0.629 µg/mL (210-fold).

Compared with B3, B4 is 41-fold higher in “Pseudovirus Neutralization” value: 0.028 µg/mL for the first, 1.16 µg/mL for the second.

With B5 the “Pseudovirus Neutralization” value was > 50 µg/mL.

target: SARS-CoV-2 Gamma (P.1.B.1.1.28) full-length Spike protein (SARS-CoV-2, UniProt P0DTC2 14-1273); experiment: cell-based or functional assay

Compared with B1, B2 is 470-fold higher in “Pseudovirus Neutralization” value: 0.0114 µg/mL for the first, 5.39 µg/mL for the second.

B3 and B4 cannot be ordered by “Pseudovirus Neutralization” value: > 50 µg/mL for the first, > 50 µg/mL for the second.

For B5, the “Pseudovirus Neutralization” value was > 50 µg/mL.

target: SARS-CoV-2 Alpha (B.1.1.7) full-length Spike protein (SARS-CoV-2, UniProt P0DTC2 14-1273); experiment: cell-based or functional assay

In order of rising “Pseudovirus Neutralization” value:
1. B1  0.013 µg/mL
2. B3  0.275 µg/mL
3. B2  2.69 µg/mL
4. B5  2.84 µg/mL
5. B4  7.23 µg/mL

target: SARS-CoV-2 Wuhan D614G full-length Spike protein (SARS-CoV-2, UniProt P0DTC2 14-1273); experiment: cell-based or functional assay

In order of falling “Pseudovirus Neutralization” value:
1. B5  2.21 µg/mL
2. B4  0.83 µg/mL
3. B2  0.7 µg/mL
4. B3  0.036 µg/mL
5. B1  0.003 µg/mL
